{"source": "paper PMC5748854", "about": "(The Journal of Experimental Medicine, 2018)", "binders": {"B1": {"name": "1710 IgG (antibody, V domains shown)", "VH": "EVQLQESGGGLVKPGGSLRLSCAASGFTFSSYSMNWVRQAPGKGLEWVSSITSSSSYIYYADSVKGRFTISRDNAKNSLYLQMNSLRAEDTAVYYCARDPGIAAADNHWFDPWGQGTLVTVSS", "VL": "not shown"}}, "target": "C-PfCSP (recombinant PfCSP C terminus, linker and αTSR subdomains) (Plasmodium falciparum NF54, UniProt P19597)", "assay": "ELISA"}
{"binder": "B1", "values": [{"measurement": "binding result", "value": "binds"}]}
